Experiments:
Experiment in all cases: fluorescence anisotropy
Conditions in all cases: 50 mM Tris-HCl pH 8.0, 50 mM NaCl, 1 mM DTT, 25 C; 200 nM protein, 5 nM 3'-fluorescein DNA
[1] = biological target: BLM full-length (human) (UniProt P54132)
[2] = biological target: BLM642-1290 (human) (UniProt P54132)
[3] = biological target: RecQ E. coli (Escherichia coli) (UniProt P15043)
RecQ E. coli (Escherichia coli), sequence (P15043 whole entry): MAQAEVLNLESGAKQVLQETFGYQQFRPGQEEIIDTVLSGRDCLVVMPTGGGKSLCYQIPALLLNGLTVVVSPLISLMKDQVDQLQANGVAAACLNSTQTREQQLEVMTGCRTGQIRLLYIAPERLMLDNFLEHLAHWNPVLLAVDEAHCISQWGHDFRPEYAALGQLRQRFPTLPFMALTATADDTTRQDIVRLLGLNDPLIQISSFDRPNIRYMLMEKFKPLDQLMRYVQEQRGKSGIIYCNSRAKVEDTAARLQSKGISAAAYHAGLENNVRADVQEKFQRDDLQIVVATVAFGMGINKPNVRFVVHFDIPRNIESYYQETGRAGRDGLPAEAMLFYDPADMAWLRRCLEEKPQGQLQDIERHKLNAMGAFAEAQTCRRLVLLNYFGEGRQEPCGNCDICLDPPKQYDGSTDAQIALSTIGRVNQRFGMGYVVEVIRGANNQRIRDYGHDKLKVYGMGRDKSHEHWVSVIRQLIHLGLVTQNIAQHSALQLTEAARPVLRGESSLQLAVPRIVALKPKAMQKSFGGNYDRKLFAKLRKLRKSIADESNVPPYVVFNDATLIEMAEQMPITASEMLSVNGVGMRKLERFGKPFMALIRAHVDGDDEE

BLM642-1290 (human), sequence (P54132 642-1290): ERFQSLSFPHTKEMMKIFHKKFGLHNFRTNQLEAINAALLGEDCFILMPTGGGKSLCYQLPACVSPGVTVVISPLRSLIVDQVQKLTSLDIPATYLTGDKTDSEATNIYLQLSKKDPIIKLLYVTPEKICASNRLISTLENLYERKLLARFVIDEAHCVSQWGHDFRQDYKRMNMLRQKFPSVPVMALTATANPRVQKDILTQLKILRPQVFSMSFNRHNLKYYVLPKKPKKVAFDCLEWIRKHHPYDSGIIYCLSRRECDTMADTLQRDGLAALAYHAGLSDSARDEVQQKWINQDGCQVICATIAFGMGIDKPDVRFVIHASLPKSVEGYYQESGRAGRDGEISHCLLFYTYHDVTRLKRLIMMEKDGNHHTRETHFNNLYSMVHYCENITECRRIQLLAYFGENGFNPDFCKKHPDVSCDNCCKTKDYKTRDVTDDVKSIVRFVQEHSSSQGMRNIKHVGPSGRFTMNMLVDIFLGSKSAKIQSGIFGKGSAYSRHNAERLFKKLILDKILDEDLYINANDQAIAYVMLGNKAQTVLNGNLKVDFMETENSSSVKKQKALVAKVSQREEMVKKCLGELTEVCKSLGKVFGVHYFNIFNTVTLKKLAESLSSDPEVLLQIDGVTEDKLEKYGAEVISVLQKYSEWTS
BLM full-length (human), sequence (P54132 whole entry): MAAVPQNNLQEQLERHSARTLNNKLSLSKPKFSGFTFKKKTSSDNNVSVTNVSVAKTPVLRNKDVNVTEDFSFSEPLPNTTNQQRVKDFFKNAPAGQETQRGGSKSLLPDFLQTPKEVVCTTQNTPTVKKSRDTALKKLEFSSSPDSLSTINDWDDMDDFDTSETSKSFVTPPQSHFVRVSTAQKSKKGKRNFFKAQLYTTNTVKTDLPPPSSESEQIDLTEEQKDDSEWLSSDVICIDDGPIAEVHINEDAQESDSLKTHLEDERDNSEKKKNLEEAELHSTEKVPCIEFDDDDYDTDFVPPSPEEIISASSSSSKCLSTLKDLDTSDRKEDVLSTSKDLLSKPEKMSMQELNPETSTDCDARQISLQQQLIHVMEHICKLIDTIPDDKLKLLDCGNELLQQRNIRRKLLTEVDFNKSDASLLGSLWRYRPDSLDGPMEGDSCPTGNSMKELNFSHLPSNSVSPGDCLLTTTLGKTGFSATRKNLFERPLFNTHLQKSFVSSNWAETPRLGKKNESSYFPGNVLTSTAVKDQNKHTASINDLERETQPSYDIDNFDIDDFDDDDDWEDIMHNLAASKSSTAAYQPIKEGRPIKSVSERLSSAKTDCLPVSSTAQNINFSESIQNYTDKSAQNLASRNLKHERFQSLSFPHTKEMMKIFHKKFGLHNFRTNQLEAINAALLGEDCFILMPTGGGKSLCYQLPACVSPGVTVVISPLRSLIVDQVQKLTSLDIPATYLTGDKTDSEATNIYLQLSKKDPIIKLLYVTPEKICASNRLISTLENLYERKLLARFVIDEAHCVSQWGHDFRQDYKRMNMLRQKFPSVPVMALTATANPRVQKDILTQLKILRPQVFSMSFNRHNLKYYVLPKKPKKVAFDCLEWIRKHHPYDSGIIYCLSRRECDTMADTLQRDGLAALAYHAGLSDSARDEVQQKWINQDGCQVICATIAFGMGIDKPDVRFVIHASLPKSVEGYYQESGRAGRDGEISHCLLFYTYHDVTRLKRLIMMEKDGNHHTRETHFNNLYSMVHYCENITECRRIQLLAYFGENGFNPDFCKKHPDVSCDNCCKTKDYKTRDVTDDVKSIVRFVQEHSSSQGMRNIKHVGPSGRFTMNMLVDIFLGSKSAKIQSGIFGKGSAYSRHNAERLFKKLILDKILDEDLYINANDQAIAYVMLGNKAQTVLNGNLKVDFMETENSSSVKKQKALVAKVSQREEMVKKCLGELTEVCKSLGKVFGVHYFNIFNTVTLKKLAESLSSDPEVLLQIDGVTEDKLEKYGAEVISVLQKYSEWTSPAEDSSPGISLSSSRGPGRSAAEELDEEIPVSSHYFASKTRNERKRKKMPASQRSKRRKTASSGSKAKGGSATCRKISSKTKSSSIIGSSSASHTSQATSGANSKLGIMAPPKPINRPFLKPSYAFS

## GCCCTGCTGCCGACCAACGAAGGT (double strand) [F-24 ds]
[1]
  IC50: 6.84 µM
[2]
  IC50: 8.17 µM
[3]
  IC50: 44.1 µM

Source: PMC4872126
